# Laboratory results taken from publication PMC5499549, “DNA substrate recognition and processing by the full-length human UPF1 helicase”.
# T1: hUPF1 (full-length) (Homo sapiens, UniProt Q92900-2 1-1118)
# T1 sequence: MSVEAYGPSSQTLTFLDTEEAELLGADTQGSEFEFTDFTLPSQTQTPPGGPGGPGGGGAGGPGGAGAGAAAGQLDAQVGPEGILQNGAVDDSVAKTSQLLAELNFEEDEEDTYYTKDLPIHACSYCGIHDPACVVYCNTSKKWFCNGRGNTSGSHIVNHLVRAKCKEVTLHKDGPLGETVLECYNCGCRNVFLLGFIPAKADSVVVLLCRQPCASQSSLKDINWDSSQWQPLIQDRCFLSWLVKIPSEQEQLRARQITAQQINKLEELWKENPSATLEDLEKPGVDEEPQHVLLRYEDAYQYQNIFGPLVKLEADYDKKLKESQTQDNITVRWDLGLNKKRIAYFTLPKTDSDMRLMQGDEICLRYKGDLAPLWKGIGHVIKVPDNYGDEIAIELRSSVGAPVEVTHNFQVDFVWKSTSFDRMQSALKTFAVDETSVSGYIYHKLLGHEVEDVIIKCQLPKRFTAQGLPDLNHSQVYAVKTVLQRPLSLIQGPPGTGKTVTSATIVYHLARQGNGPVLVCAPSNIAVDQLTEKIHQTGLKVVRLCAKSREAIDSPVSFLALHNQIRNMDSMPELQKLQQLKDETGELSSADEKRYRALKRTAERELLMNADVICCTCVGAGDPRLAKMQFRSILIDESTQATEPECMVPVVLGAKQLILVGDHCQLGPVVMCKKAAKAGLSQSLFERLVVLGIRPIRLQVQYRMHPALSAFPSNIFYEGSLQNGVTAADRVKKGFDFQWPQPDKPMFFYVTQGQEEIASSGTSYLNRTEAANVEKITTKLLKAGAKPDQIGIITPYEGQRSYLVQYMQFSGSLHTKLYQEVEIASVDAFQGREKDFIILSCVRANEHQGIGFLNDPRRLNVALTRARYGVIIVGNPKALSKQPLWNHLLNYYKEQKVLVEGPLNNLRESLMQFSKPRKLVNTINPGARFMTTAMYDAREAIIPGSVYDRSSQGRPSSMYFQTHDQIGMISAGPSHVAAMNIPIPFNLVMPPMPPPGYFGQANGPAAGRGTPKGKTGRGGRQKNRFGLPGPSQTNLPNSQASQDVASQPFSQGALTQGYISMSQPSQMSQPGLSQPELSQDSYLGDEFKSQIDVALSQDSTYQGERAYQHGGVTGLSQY
# B1: d(T)15-Alexa647 (ssDNA)
# DNA: TTTTTTTTTTTTTTT
# B2: d(T)45 (ssDNA)
# DNA: TTTTTTTTTTTTTTTTTTTTTTTTTTTTTTTTTTTTTTTTTTTTT
# B3: (A)35 (ssRNA)
# RNA: AAAAAAAAAAAAAAAAAAAAAAAAAAAAAAAAAAA
# B4: d(A)35-Alexa647 (ssDNA)
# DNA: AAAAAAAAAAAAAAAAAAAAAAAAAAAAAAAAAAA
# B5: (U)35 (ssRNA)
# RNA: UUUUUUUUUUUUUUUUUUUUUUUUUUUUUUUUUUU
# B6: DNA35 (ssDNA)
# DNA: CACAAGCAACCAATCGGTTCGACACTCATACTGGC
# B7: DNA35-Alexa647 (ssDNA)
# DNA: CACAAGCAACCAATCGGTTCGACACTCATACTGGC
# B8: d(T)25-Alexa647 (ssDNA)
# DNA: TTTTTTTTTTTTTTTTTTTTTTTTT
# B9: d(T)18 (ssDNA)
# DNA: TTTTTTTTTTTTTTTTTT
# B10: d(T)35 (ssDNA)
# DNA: TTTTTTTTTTTTTTTTTTTTTTTTTTTTTTTTTTT
# B11: d(T)35-Alexa647 (ssDNA)
# DNA: TTTTTTTTTTTTTTTTTTTTTTTTTTTTTTTTTTT
# B12: RNA35 (ssRNA)
# RNA: CACAAGCAACCAAUCGGUUCGACACUCAUACUGGC
# B13: d(T)55 (ssDNA)
# DNA: TTTTTTTTTTTTTTTTTTTTTTTTTTTTTTTTTTTTTTTTTTTTTTTTTTTTTTT
# Key:
# hUPF1 (full-length) [1] = target: T1, hUPF1 (full-length); assay: MST; 25 mM HEPES-NaOH pH 7.2, 135 mM NaCl, 2 mM DTT, 1 mg/ml acetylated BSA, 0.1% NP40, 20 min; EMSA 20 C, MST 22 C (20 nM DNA); no nucleotide cofactor or Mg2+ unles; conditions: protein: recombinant; tags: GST and His tags removed (thrombin, TEV); residual ENLYFQ linker likely at C-terminus; label: 5' Alexa 647
# hUPF1 (full-length) [2] = target: T1, hUPF1 (full-length); assay: EMSA; most or all bound at top concentrations; multimerization; 25 mM HEPES-NaOH pH 7.2, 135 mM NaCl, 2 mM DTT, 1 mg/ml acetylated BSA, 0.1% NP40, 20 min; EMSA 20 C, MST 22 C (20 nM DNA); no nucleotide cofactor or Mg2+ unles; conditions: protein: recombinant; tags: GST and His tags removed (thrombin, TEV); residual ENLYFQ linker likely at C-terminus; label: 32P
# hUPF1 (full-length) [3] = target: T1, hUPF1 (full-length); assay: EMSA; 25 mM HEPES-NaOH pH 7.2, 135 mM NaCl, 2 mM DTT, 1 mg/ml acetylated BSA, 0.1% NP40, 20 min; EMSA 20 C, MST 22 C (20 nM DNA); no nucleotide cofactor or Mg2+ unles; conditions: protein: recombinant; tags: GST and His tags removed (thrombin, TEV); residual ENLYFQ linker likely at C-terminus; label: 32P (EMSA)
# hUPF1 (full-length) [4] = target: T1, hUPF1 (full-length); assay: competition; vs 0.25 nM 32P-DNA35, 10 nM hUPF1; 25 mM HEPES-NaOH pH 7.2, 135 mM NaCl, 2 mM DTT, 1 mg/ml acetylated BSA, 0.1% NP40, 20 min; EMSA 20 C, MST 22 C (20 nM DNA); no nucleotide cofactor or Mg2+ unles; conditions: protein: recombinant, tags: GST and His tags removed (thrombin, TEV), residual ENLYFQ linker likely at C-terminus
# hUPF1 (full-length) [5] = target: T1, hUPF1 (full-length); assay: MST; biphasic, low-amplitude first phase; 25 mM HEPES-NaOH pH 7.2, 135 mM NaCl, 2 mM DTT, 1 mg/ml acetylated BSA, 0.1% NP40, 20 min; EMSA 20 C, MST 22 C (20 nM DNA); no nucleotide cofactor or Mg2+ unles; conditions: protein: recombinant; tags: GST and His tags removed (thrombin, TEV); residual ENLYFQ linker likely at C-terminus; label: 5' Alexa 647
# hUPF1 (full-length) [6] = target: T1, hUPF1 (full-length); assay: EMSA; 25 mM HEPES-NaOH pH 7.2, 135 mM NaCl, 2 mM DTT, 1 mg/ml acetylated BSA, 0.1% NP40, 20 min; EMSA 20 C, MST 22 C (20 nM DNA); no nucleotide cofactor or Mg2+ unles; conditions: protein: recombinant; tags: GST and His tags removed (thrombin, TEV); residual ENLYFQ linker likely at C-terminus; label: 5' 32P (EMSA)
# hUPF1 (full-length) [7] = target: T1, hUPF1 (full-length); assay: MST; fit up to 156 nM hUPF1; 25 mM HEPES-NaOH pH 7.2, 135 mM NaCl, 2 mM DTT, 1 mg/ml acetylated BSA, 0.1% NP40, 20 min; EMSA 20 C, MST 22 C (20 nM DNA); no nucleotide cofactor or Mg2+ unles; conditions: protein: recombinant; tags: GST and His tags removed (thrombin, TEV); residual ENLYFQ linker likely at C-terminus; label: 5' Alexa 647
# hUPF1 (full-length) [8] = target: T1, hUPF1 (full-length); assay: MST; fit up to 313 nM hUPF1; 25 mM HEPES-NaOH pH 7.2, 135 mM NaCl, 2 mM DTT, 1 mg/ml acetylated BSA, 0.1% NP40, 20 min; EMSA 20 C, MST 22 C (20 nM DNA); no nucleotide cofactor or Mg2+ unles; conditions: protein: recombinant; tags: GST and His tags removed (thrombin, TEV); residual ENLYFQ linker likely at C-terminus; label: 5' Alexa 647
# hUPF1 (full-length) [9] = target: T1, hUPF1 (full-length); assay: EMSA; equivalent to G4 ss precursor; 25 mM HEPES-NaOH pH 7.2, 135 mM NaCl, 2 mM DTT, 1 mg/ml acetylated BSA, 0.1% NP40, 20 min; EMSA 20 C, MST 22 C (20 nM DNA); no nucleotide cofactor or Mg2+ unles; conditions: protein: recombinant; tags: GST and His tags removed (thrombin, TEV); residual ENLYFQ linker likely at C-terminus; label: 32P
# hUPF1 (full-length) [10] = target: T1, hUPF1 (full-length); assay: EMSA; no nucleotide cofactor; 25 mM HEPES-NaOH pH 7.2, 135 mM NaCl, 2 mM DTT, 1 mg/ml acetylated BSA, 0.1% NP40, 20 min; EMSA 20 C, MST 22 C (20 nM DNA); no nucleotide cofactor or Mg2+ unles; conditions: protein: recombinant; tags: GST and His tags removed (thrombin, TEV); residual ENLYFQ linker likely at C-terminus; label: 5' 32P (EMSA)
# hUPF1 (full-length) [11] = target: T1, hUPF1 (full-length); assay: MST; second experimental group; fit up to 156 nM; 25 mM HEPES-NaOH pH 7.2, 135 mM NaCl, 2 mM DTT, 1 mg/ml acetylated BSA, 0.1% NP40, 20 min; EMSA 20 C, MST 22 C (20 nM DNA); no nucleotide cofactor or Mg2+ unles; conditions: protein: recombinant; tags: GST and His tags removed (thrombin, TEV); residual ENLYFQ linker likely at C-terminus; label: 5' Alexa 647
binder,measurement,setting,value
B1,Kd,hUPF1 (full-length) [1],39.4 ± 3.6 nM
B2,binding result,hUPF1 (full-length) [2],binds
B3,binding signal,hUPF1 (full-length) [3],~5 fold higher affinity than (C)35
same,IC50,hUPF1 (full-length) [4]; label: 32P (EMSA),172 nM
B4,Kd,hUPF1 (full-length) [5],4200 ± 3730 nM
B5,IC50,hUPF1 (full-length) [4]; label: 32P (EMSA),12.3 nM
B6,binding signal,hUPF1 (full-length) [6],~3 fold higher affinity than RNA35
same,IC50,hUPF1 (full-length) [4]; label: 5' 32P (EMSA),31.5 nM
B7,Kd,hUPF1 (full-length) [7],9.8 ± 1 nM
B8,Kd,hUPF1 (full-length) [8],5.98 ± 0.51 nM
B9,binding result,hUPF1 (full-length) [9],binds
B10,binding signal,hUPF1 (full-length) [6],~2 fold higher affinity than (U)35
same,Kd,hUPF1 (full-length) [10],~1 nM
same,IC50,hUPF1 (full-length) [4]; label: 5' 32P (EMSA),11.5 nM
B11,Kd,hUPF1 (full-length) [7],4.05 ± 0.58 nM
same,Kd,hUPF1 (full-length) [11],6.01 ± 0.85 nM
B12,IC50,hUPF1 (full-length) [4]; label: 32P (EMSA),50.4 nM
B13,binding result,hUPF1 (full-length) [2],binds
